Measured values taken from patent publication US20170183396A1 (published 2017).

T1: ZEBOV GP (Zaire ebolavirus, UniProt Q05320 33-650)
T1 sequence: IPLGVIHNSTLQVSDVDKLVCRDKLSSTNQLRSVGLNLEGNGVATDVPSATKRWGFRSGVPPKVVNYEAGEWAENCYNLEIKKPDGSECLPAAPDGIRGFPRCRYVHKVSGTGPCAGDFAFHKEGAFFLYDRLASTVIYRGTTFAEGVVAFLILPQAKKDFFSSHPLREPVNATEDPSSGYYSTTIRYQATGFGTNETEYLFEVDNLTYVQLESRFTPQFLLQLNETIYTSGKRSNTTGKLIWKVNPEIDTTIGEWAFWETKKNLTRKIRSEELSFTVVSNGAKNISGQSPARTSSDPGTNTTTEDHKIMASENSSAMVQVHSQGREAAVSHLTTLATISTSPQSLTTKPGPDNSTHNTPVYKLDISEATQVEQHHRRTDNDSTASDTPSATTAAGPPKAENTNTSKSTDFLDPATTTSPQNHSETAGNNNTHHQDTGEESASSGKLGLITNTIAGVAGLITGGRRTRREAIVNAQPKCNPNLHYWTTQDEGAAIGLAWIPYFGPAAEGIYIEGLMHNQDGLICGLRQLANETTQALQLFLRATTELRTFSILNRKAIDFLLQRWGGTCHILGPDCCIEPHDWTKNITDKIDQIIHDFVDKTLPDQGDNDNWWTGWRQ

B1: CAN9G1 monoclonal antibody (antibody, V domains shown)
VH: ERQLVESGGGVVKPGESLKLSCAASGFAFSSYDMSWVRQTPEKRLEWVAYSSRGGGFTYYPDTVKGRFTIARDNAKNTLHLQMSSLKSEDTAMYYCATHYYGPLYAMDYWGQGTSVTVSS
VL: QLVLTQSSSASFSLGASAKLTCTLSSQHSTFTIEWYQQQPLKAPKYVMELKKDGSHSTGDGIPDRFSGSSSGADRYLWISNIQPEDEAMYICGVGDTIKEQFVYVFGGGTKVTVL

Tests used:
[1] = target: ZEBOV GP (Zaire ebolavirus) (UniProt Q05320); assay: affinity for recombinant ZEBOV GP; method not described
ZEBOV GP = target: T1, ZEBOV GP; assay: as above

Row | Molecule | Kd [1] [nM] | Kd (ZEBOV GP) [nM]
1 | USAMRIID mAb 13F6 (antibody) | 0.33 | 
2 | B1 |  | 0.27
